Source: US20100150860A1

Columns and labels:
[1] = target: human fibrin (Sigma, F5386) (human) (UniProt P02671); assay: SEC-HPLC of the mixture after 1 h at 37 C; peak of the bound pair
[2] = target: human fibrin (Sigma, F5386) (human) (UniProt P02671); assay: SEC-HPLC of the mixture after 1 h at 37 C; second peak (thrombin alone runs at 18.778)

Chain of human fibrin (Sigma, F5386) (human) (P02671 36-629, chain 1 of 3): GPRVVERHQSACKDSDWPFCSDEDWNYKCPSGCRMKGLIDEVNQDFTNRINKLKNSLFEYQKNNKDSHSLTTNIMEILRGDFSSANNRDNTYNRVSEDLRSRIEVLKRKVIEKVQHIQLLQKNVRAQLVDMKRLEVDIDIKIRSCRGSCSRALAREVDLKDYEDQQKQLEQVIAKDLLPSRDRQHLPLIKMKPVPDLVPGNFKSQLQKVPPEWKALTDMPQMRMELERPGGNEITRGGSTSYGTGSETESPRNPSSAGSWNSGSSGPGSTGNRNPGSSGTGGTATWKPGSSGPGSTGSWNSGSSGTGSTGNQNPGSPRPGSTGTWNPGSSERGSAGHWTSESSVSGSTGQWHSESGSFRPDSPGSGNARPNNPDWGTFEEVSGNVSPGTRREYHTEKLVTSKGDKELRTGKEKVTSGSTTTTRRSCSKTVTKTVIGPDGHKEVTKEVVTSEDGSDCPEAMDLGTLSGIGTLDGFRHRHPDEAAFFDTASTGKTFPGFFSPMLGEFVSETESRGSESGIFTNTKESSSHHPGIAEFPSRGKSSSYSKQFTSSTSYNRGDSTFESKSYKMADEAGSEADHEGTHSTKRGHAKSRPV
Chain of human fibrin (Sigma, F5386) (human) (P02675 45-491, chain 2 of 3, further chain): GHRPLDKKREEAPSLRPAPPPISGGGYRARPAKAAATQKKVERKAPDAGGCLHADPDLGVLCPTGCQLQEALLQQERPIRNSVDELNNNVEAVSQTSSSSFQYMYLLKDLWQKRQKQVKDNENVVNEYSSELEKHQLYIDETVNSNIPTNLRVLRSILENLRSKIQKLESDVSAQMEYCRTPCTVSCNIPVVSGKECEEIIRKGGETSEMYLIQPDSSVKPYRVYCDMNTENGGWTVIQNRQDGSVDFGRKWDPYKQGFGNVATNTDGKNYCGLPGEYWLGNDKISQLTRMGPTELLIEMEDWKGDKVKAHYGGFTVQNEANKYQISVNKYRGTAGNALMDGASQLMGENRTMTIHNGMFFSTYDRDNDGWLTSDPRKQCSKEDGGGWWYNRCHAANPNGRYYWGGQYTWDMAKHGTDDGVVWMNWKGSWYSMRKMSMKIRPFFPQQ
Chain of human fibrin (Sigma, F5386) (human) (P02679 other isoform, or with tags, fused parts or gaps, chain 3 of 3, further chain): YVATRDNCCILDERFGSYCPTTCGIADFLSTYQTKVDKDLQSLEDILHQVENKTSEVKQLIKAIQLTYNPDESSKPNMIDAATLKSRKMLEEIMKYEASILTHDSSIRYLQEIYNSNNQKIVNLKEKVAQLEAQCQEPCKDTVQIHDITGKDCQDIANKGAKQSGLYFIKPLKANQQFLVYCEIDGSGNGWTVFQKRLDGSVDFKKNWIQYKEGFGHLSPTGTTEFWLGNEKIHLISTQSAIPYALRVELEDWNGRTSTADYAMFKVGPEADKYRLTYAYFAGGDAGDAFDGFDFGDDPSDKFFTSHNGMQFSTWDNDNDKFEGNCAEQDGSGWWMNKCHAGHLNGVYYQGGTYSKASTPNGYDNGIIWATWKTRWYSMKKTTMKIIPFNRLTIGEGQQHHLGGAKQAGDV

Substance: human thrombin (National Institute for the Control of Pharmaceutical and Biological Products, Lot No. 20021105) (from UniProt P00734 328-622) (enzyme)
- retention time (min), peak 1 [1]: 12.6 min
- retention time (min), peak 2 [2]: 18.6 min
